Residue numbers refer to the chain shown, from its start.
Assays:
Assay in all cases: EMSA
Settings in all cases: tags: MBP fusion
ZFP SBS#969 = molecular target: T1, ZFP SBS#969 (synthetic)
T1 chain: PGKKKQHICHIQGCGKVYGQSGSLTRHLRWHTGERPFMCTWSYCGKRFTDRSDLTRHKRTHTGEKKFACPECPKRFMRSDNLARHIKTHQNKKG
Procedure, shortened: (§1)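 Purified ZFP was titrated against labeled double-stranded target (1 nM or lower, at least 10-fold below expected Kd) carrying the natural binding site with flanks. Binding buffer was 10 mM Tris pH 7.5, 100 mM KCl, 1 mM MgCl2, 0.1 mM ZnCl2, 5 mM DTT, 10% glycerol, 0.02% BSA, with equilibration for at least 45 min. Bound and free target were separated on a 10% polyacrylamide gel.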

ZFP SBS#968 = molecular target: T2, ZFP SBS#968 (synthetic)
T2 chain: T1 chain with D53S
Procedure, shortened: as §1

ZFP SBS#989 = molecular target: T3, ZFP SBS#989 (synthetic)
T3 chain: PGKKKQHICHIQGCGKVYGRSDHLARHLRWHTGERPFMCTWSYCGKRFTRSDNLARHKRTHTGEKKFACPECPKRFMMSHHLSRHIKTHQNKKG
Procedure, shortened: as §1

ZFP SBS#971 = molecular target: T4, ZFP SBS#971 (synthetic)
T4 chain: T1 chain with Q20D, S21R, G22S, D53H, T55A, N81A
Procedure, shortened: as §1

ZFP SBS#972 = molecular target: T5, ZFP SBS#972 (synthetic)
T5 chain: T1 chain with Q20E, S21R, S23D, D53H, T55A, N81A
Procedure, shortened: as §1

ZFP SBS#970 = molecular target: T6, ZFP SBS#970 (synthetic)
T6 chain: T1 chain with Q20E, S21R, S23T, T25A, D53H, T55A, N81A
Procedure, shortened: as §1

ZFP SBS#975 = molecular target: T7, ZFP SBS#975 (synthetic)
T7 chain: T1 chain with G22S, S23D, D53S, A83R, R84E
Procedure, shortened: as §1

ZFP SBS#976 = ZFP SBS#976 (synthetic)
Procedure, shortened: as §1

ZFP SBS#368 = ZFP SBS#368 (synthetic)
Procedure, shortened: as §1

ZFP SBS#438 = ZFP SBS#438 (synthetic)
Procedure, shortened: as §1

ZFP SBS#965 = molecular target: T8, ZFP SBS#965 (synthetic)
T8 chain: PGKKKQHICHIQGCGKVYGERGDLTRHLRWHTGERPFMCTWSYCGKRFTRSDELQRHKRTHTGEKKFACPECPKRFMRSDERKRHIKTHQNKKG
Procedure, shortened: as §1

ZFP SBS#434 = molecular target: T9, ZFP SBS#434 (synthetic)
T9 chain: T1 chain with G22A, R51S, S52G, D53H, R78E, S79K, D80A, A83T
Procedure, shortened: as §1

ZFP SBS#435 = molecular target: T10, ZFP SBS#435 (synthetic)
T10 chain: T1 chain with G22A, R51S, S52G, D53H, R78E, S79R, D80G, A83T
Procedure, shortened: as §1

ZFP SBS#436 = ZFP SBS#436 (synthetic)
Procedure, shortened: as §1

ZFP SBS#437 = ZFP SBS#437 (synthetic)
Procedure, shortened: as §1

ZFP SBS#982 = molecular target: T11, ZFP SBS#982 (synthetic)
T11 chain: T1 chain with Q20R, G22D, S23H, R26T, D53H, T55A, N81E, A83R, R84E
Procedure, shortened: as §1

ZFP SBS#983 = molecular target: T12, ZFP SBS#983 (synthetic)
T12 chain: T1 chain with Q20R, G22D, S23H, R26K, D53H, T55A, N81E, A83R, R84E
Procedure, shortened: as §1

ZFP SBS#973 = molecular target: T13, ZFP SBS#973 (synthetic)
T13 chain: T8 chain with E20D, G22S, D23A, R78E, S79R, D80G, E81T, R82L, K83A
Procedure, shortened: as §1

ZFP SBS#974 = molecular target: T14, ZFP SBS#974 (synthetic)
T14 chain: T8 chain with E20D, G22S, D23A, R78D, S79R, D80S, E81D, R82L, K83T
Procedure, shortened: as §1

ZFP SBS#1001 = ZFP SBS#1001 (synthetic)
Procedure, shortened: as §1

ZFP SBS#997 = ZFP SBS#997 (synthetic)
Procedure, shortened: as §1

ZFP SBS#999 = ZFP SBS#999 (synthetic)
Procedure, shortened: as §1

ZFP SBS#978 = molecular target: T15, ZFP SBS#978 (synthetic)
T15 chain: T1 chain with Q20R, G22D, D50Q, R51S, S52G, N81A, A83R, R84E
Procedure, shortened: as §1

ZFP SBS#977 = molecular target: T16, ZFP SBS#977 (synthetic)
T16 chain: T1 chain with Q20R, G22D, D50Q, R51S, S52G, D53S, N81A, A83R, R84E
Procedure, shortened: as §1

ZFP SBS#967 = molecular target: T17, ZFP SBS#967 (synthetic)
T17 chain: T8 chain with E20D, G22S, D23S, E53N, Q55S, E81N, R82L, K83A
Procedure, shortened: as §1

ZFP SBS#966 = molecular target: T18, ZFP SBS#966 (synthetic)
T18 chain: T8 chain with D23T, T25A, E53N, Q55S, E81N, R82L, K83A
Procedure, shortened: as §1

ZFP SBS#991 = ZFP SBS#991 (synthetic)
Procedure, shortened: as §1

ZFP SBS#990 = molecular target: T19, ZFP SBS#990 (synthetic, UniProt P08047)
T19 chain: T8 chain with E20D, G22S, D23H, E53S, Q55A, E81N, R82L, K83T, R84Q
Procedure, shortened: as §1

ZFP SBS#1006 = ZFP SBS#1006 (synthetic)
Procedure, shortened: as §1

ZFP SBS#984 = molecular target: T20, ZFP SBS#984 (synthetic)
T20 chain: T1 chain with Q20R, G22D, S23N, T25A, D53H, T55A, R78D, S79R, D80S, A83T
Procedure, shortened: as §1

ZFP SBS#985 = molecular target: T21, ZFP SBS#985 (synthetic)
T21 chain: T1 chain with Q20R, G22D, S23N, T25A, D53H, T55A, R78E, S79K, D80A, A83T
Procedure, shortened: as §1

ZFP SBS#981 = molecular target: T22, ZFP SBS#981 (synthetic, UniProt P08047)
T22 chain: T8 chain with E20R, R21S, G22D, E81N, R82L, K83R, R84E
Procedure, shortened: as §1

ZFP SBS#939 = molecular target: T23, ZFP SBS#939 (synthetic)
T23 chain: T1 chain with Q20R, G22D, S23H, R26T, D53H, T55A, N81H, A83S, R84K
Procedure, shortened: as §1

ZFP SBS#940 = ZFP SBS#940 (synthetic)
Procedure, shortened: as §1

ZFP SBS#994 = ZFP SBS#994 (synthetic)
Procedure, shortened: as §1

ZFP SBS#997 (synthetic), sequence (chain, as listed by the source): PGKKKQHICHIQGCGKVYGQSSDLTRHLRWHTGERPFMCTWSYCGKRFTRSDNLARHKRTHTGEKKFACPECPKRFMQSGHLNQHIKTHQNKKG
ZFP SBS#991 (synthetic), sequence (chain, as listed by the source): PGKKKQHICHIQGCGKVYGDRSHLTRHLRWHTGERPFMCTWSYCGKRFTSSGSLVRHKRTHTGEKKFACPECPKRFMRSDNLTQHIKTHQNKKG
ZFP SBS#999 (synthetic), sequence (chain, as listed by the source): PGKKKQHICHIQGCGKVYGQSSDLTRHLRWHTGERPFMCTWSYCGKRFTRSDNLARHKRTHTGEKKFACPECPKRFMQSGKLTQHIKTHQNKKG
ZFP SBS#436 (synthetic), sequence (chain, as listed by the source): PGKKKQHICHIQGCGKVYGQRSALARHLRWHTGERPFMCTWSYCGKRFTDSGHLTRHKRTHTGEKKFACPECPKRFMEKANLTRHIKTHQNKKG
ZFP SBS#368 (synthetic), sequence (chain, as listed by the source): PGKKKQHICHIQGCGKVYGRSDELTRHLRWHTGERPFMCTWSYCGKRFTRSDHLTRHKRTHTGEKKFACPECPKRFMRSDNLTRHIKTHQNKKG
ZFP SBS#1006 (synthetic), sequence (chain, as listed by the source): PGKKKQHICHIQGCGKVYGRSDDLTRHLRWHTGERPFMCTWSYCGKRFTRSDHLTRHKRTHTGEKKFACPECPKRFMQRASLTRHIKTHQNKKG
ZFP SBS#940 (synthetic), sequence (chain, as listed by the source): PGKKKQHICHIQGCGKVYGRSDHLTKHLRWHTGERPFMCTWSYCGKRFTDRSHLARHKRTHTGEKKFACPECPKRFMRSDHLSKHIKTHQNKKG
ZFP SBS#1001 (synthetic), sequence (chain, as listed by the source): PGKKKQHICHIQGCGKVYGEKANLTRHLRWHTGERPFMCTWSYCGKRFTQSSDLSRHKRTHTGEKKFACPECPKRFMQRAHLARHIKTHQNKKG
ZFP SBS#976 (synthetic), sequence (chain, as listed by the source): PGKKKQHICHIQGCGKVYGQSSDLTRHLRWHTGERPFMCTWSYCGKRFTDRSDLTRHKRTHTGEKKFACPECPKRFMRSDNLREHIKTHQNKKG
ZFP SBS#437 (synthetic), sequence (chain, as listed by the source): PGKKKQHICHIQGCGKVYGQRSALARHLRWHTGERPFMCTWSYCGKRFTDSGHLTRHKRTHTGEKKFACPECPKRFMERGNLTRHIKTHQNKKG

B1: GAGGCCGCA (dsDNA)
DNA 1: GAGGCCGCA
DNA 2: TGCGGCCTC
Kd (ZFP SBS#969): 0.275 nM
Kd (ZFP SBS#968): 1.4 nM

B2: GGTGAGGGG (dsDNA)
DNA 1: GGTGAGGGG
DNA 2: CCCCTCACC
Kd (ZFP SBS#989): 1.9 nM

B3: GTGGGCGCC (dsDNA)
DNA 1: GTGGGCGCC
DNA 2: GGCGCCCAC
Kd (ZFP SBS#971): 0.144 nM
Kd (ZFP SBS#972): 1.75 nM
Kd (ZFP SBS#970): 1.86 nM

B4: CAGGCCGCT (dsDNA)
DNA 1: CAGGCCGCT
DNA 2: AGCGGCCTG
Kd (ZFP SBS#975): 1.1 nM
Kd (ZFP SBS#976): 4.12 nM

B5: GAGGGGGCG (dsDNA)
DNA 1: GAGGGGGCG
DNA 2: CGCCCCCTC
Kd (ZFP SBS#368): 3.5 nM
Kd (ZFP SBS#438): 62.5 nM

B6: GCGGCGGCC (dsDNA)
DNA 1: GCGGCGGCC
DNA 2: GGCCGCCGC
Kd (ZFP SBS#965): 3.1 nM

B7: GACGGCGTA (dsDNA)
DNA 1: GACGGCGTA
DNA 2: TACGCCGTC
Kd (ZFP SBS#434): 152 nM
Kd (ZFP SBS#435): 150 nM
Kd (ZFP SBS#436): 95 nM
Kd (ZFP SBS#437): 118 nM

B8: CCGGGCTGG (dsDNA)
DNA 1: CCGGGCTGG
DNA 2: CCAGCCCGG
Kd (ZFP SBS#982): 0.03 nM
Kd (ZFP SBS#983): 1.39 nM

B9: GCCGCGGTC (dsDNA)
DNA 1: GCCGCGGTC
DNA 2: GACCGCGGC
Kd (ZFP SBS#973): 0.6 nM
Kd (ZFP SBS#974): 0.038 nM

B10: GGAGCTGAC (dsDNA)
DNA 1: GGAGCTGAC
DNA 2: GTCAGCTCC
Kd (ZFP SBS#1001): 1.8 nM

B11: AGAGAGGCT (dsDNA)
DNA 1: AGAGAGGCT
DNA 2: AGCCTCTCT
Kd (ZFP SBS#997): 1.65 nM
Kd (ZFP SBS#999): 0.6 nM

B12: CTGGCAGTG (dsDNA)
DNA 1: CTGGCAGTG
DNA 2: CACTGCCAG
Kd (ZFP SBS#978): 1.58 nM
Kd (ZFP SBS#977): 0.017 nM

B13: GAGGAGGCC (dsDNA)
DNA 1: GAGGAGGCC
DNA 2: GGCCTCCTC
Kd (ZFP SBS#967): 0.055 nM
Kd (ZFP SBS#966): 0.028 nM

B14: AAGGTGGGC (dsDNA)
DNA 1: AAGGTGGGC
DNA 2: GCCCACCTT
Kd (ZFP SBS#991): 0.06 nM
Kd (ZFP SBS#990): 5.35 nM

B15: GTAGGGGCG (dsDNA)
DNA 1: GTAGGGGCG
DNA 2: CGCCCCTAC
Kd (ZFP SBS#1006): 0.898 nM

B16: GACGGCGAG (dsDNA)
DNA 1: GACGGCGAG
DNA 2: CTCGCCGTC
Kd (ZFP SBS#984): 1.6 nM
Kd (ZFP SBS#985): 0.965 nM

B17: CAGGCGGCG (dsDNA)
DNA 1: CAGGCGGCG
DNA 2: CGCCGCCTG
Kd (ZFP SBS#981): 0.375 nM

B18: GGGGGCTGG (dsDNA)
DNA 1: GGGGGCTGG
DNA 2: CCAGCCCCC
Kd (ZFP SBS#939): 0.352 nM
Kd (ZFP SBS#940): 1.5 nM
Kd (ZFP SBS#994): 0.03 nM
